Consider 28 molecules from patent US20100183625A1, “Treatment of Mucositis with Kallikrein Inhibitors” (Dyax Corp., priority 2009, published 2010).

Residue numbers refer to the chain shown, from its start.

In this experiment the target is T1, pKal (Homo sapiens, UniProt P03952).
T1 construct: two disulfide linked polypeptides; a heavy chain of approximately 52 kDa and a catalytic domain of approximately 34 kDa; host or cells: human plasma
The experiment can be described thus: Fab fragments (small scale) tested for inhibition against human pKal in an in vitro protease cleavage assay. The experiment is classed as biochemical. As to conditions: Table 9. The protocol:
By DNA sequencing, we recovered 61 of the possible 80 antibodies (Table 9). These antibodies were produced as Fab fragments in small scale (˜20 μg) and tested for inhibition against human pKal in an in vitro protease cleavage assay using Pro-Phe-Arg-aminomethylcoumarin as the synthetic peptide substrate. […] Five antibodies were then expressed in 293T cells and purified by protein A sepharose chromatography. The antibodies were analyzed by SDS-PAGE to determine which of the inhibitory mutants are not cleaved by the host cell protease(s) (data not shown).

T1 sequence (P03952 391-638 limits assumed): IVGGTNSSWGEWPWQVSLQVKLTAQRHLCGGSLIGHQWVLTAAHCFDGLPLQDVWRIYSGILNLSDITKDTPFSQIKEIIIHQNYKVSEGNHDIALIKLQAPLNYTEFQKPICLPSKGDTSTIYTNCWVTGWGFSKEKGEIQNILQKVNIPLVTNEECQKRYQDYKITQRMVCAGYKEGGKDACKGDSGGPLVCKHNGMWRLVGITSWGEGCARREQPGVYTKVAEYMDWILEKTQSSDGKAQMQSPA
T1 sequence (P03952 20-390 partner limits assumed): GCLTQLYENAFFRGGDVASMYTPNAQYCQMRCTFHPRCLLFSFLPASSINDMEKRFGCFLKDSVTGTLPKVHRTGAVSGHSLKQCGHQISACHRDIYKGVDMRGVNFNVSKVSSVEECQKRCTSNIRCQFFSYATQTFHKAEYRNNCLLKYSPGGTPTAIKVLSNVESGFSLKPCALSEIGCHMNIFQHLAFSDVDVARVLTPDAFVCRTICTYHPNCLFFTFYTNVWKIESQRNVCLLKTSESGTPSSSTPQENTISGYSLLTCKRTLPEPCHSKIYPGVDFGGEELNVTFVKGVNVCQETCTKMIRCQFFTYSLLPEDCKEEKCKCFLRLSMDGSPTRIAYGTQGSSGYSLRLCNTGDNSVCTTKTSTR

B1: X68-H04: single point mutation of M142-H08 (P3); HV-CDR3 GGLLLVFRELKSNYFDY (antibody, V domains shown)
VL: QDIQMTQSPSSLSAFVGDRVTITCRASQPIDNYLNWYHQKPGKAPKLLIYAASRLQSGVPSRLSGSGFGTDFTLTISSLQPEDFGNYYCQQSYTVPYTFGGGTKVEIR
VH: EVQLLESGGGLVQPGGSLRLSCAASGFTFSAYSMIWVRQAPGKGLEWVSYIRPSGGRTTYADSVKGRFTISRDNSKNTLYLQMNSLRAEDTAVYYCARGGLLLVFRELKSNYFDYWGQGTLVTVSSASTKGPSVFPLAPSSKS
On to B1, for which the “Inhibit as a Fab?” value was “No”.

B2: X66-E04: single point mutation of M142-H08 (P1); HV-CDR3 GGLLLWFQELKSNYFDY (antibody, V domains shown)
VL: B1 VL
VH: B1 VH with V104W, R106Q
Take B2: the “Inhibit as a Fab?” value is “No”.

B3: X67-C09: single point mutation of M142-H08 (P2); HV-CDR3 GGLLLWGRELKSNYFDY (antibody, V domains shown)
VL: B1 VL
VH: B1 VH with V104W, F105G
Regarding B3, the “Inhibit as a Fab?” value is recorded as “Yes”.

B4: X67-B04: single point mutation of M142-H08 (P2); HV-CDR3 GGLLLWKRELKSNYFDY (antibody, V domains shown)
VL: B1 VL
VH: B1 VH with V104W, F105K
As to B4, the “Inhibit as a Fab?” value was “Yes”.

B5: X67-G05: single point mutation of M142-H08 (P2); HV-CDR3 GGLLLWRRELKSNYFDY (antibody, V domains shown)
VL: B1 VL
VH: B1 VH with V104W, F105R
On to B5, for which the “Inhibit as a Fab?” value was “Yes”.

B6: X67-H01: single point mutation of M142-H08 (P2); HV-CDR3 GGLLLWWRELKSNYFDY (antibody, V domains shown)
VL: B1 VL
VH: B1 VH with V104W, F105W
Turning to B6, the “Inhibit as a Fab?” value is reported as “Yes”.

B7: X67-H04: single point mutation of M142-H08 (P2); HV-CDR3 GGLLLWERELKSNYFDY (antibody, V domains shown)
VL: B1 VL
VH: B1 VH with V104W, F105E
On to B7, for which the “Inhibit as a Fab?” value is “Yes”.

B8: X66-F09: single point mutation of M142-H08 (P1); HV-CDR3 GGLLLWFWELKSNYFDY (antibody, V domains shown)
VL: B1 VL
VH: B1 VH with V104W, R106W
In the case of B8, the “Inhibit as a Fab?” value is recorded as “No”.

B9: X66-D03: single point mutation of M142-H08 (P1); HV-CDR3 GGLLLWFEELKSNYFDY (antibody, V domains shown)
VL: B1 VL
VH: B1 VH with V104W, R106E
For B9, the “Inhibit as a Fab?” value is on record as “No”.

B10: X66-B05: single point mutation of M142-H08 (P1); HV-CDR3 GGLLLWFCELKSNYFDY (antibody, V domains shown)
VL: B1 VL
VH: B1 VH with V104W, R106C
For B10, the “Inhibit as a Fab?” value was “No”.

B11: X67-E04: single point mutation of M142-H08 (P2); HV-CDR3 GGLLLWDRELKSNYFDY (antibody, V domains shown)
VL: B1 VL
VH: B1 VH with V104W, F105D
Take B11: the “Inhibit as a Fab?” value was “Yes”.

B12: X66-G05: single point mutation of M142-H08 (P1); HV-CDR3 GGLLLWFMELKSNYFDY (antibody, V domains shown)
VL: B1 VL
VH: B1 VH with V104W, R106M
Consider B12, for which the “Inhibit as a Fab?” value was “No”.

B13: X66-F10: single point mutation of M142-H08 (P1); HV-CDR3 GGLLLWFPELKSNYFDY (antibody, V domains shown)
VL: B1 VL
VH: B1 VH with V104W, R106P
Take B13: the “Inhibit as a Fab?” value is reported as “No”.

B14: X66-H02: single point mutation of M142-H08 (P1); HV-CDR3 GGLLLWFGELKSNYFDY (antibody, V domains shown)
VL: B1 VL
VH: B1 VH with V104W, R106G
In the case of B14, the “Inhibit as a Fab?” value is on record as “No”.

B15: X66-E09: single point mutation of M142-H08 (P1); HV-CDR3 GGLLLWFAELKSNYFDY (antibody, V domains shown)
VL: B1 VL
VH: B1 VH with V104W, R106A
Regarding B15, the “Inhibit as a Fab?” value was “No”.

B16: X66-H11: single point mutation of M142-H08 (P1); HV-CDR3 GGLLLWFTELKSNYFDY (antibody, V domains shown)
VL: B1 VL
VH: B1 VH with V104W, R106T
Consider B16, for which the “Inhibit as a Fab?” value was “No”.

B17: X67-B05: single point mutation of M142-H08 (P2); HV-CDR3 GGLLLWPRELKSNYFDY (antibody, V domains shown)
VL: B1 VL
VH: B1 VH with V104W, F105P
Consider B17, for which the “Inhibit as a Fab?” value is “No”.

B18: X66-H04: single point mutation of M142-H08 (P1); HV-CDR3 GGLLLWFFELKSNYFDY (antibody, V domains shown)
VL: B1 VL
VH: B1 VH with V104W, R106F
On to B18, for which the “Inhibit as a Fab?” value is “No”.

B19: X67-B03: single point mutation of M142-H08 (P2); HV-CDR3 GGLLLWSRELKSNYFDY (antibody, V domains shown)
VL: B1 VL
VH: B1 VH with V104W, F105S
For the molecule B19, the “Inhibit as a Fab?” value is “Yes”.

B20: X66-C11: single point mutation of M142-H08 (P1); HV-CDR3 GGLLLWFHELKSNYFDY (antibody, V domains shown)
VL: B1 VL
VH: B1 VH with V104W, R106H
Take B20: the “Inhibit as a Fab?” value was “No”.

B21: X66-F01: single point mutation of M142-H08 (P1); HV-CDR3 GGLLLWFSELKSNYFDY (antibody, V domains shown)
VL: B1 VL
VH: B1 VH with V104W, R106S
In the case of B21, the “Inhibit as a Fab?” value is “No”.

B22: X67-F08: single point mutation of M142-H08 (P2); HV-CDR3 GGLLLWYRELKSNYFDY (antibody, V domains shown)
VL: B1 VL
VH: B1 VH with V104W, F105Y
With B22, the “Inhibit as a Fab?” value is “Yes”.

B23: X66-A07: single point mutation of M142-H08 (P1); HV-CDR3 GGLLLWFKELKSNYFDY (antibody, V domains shown)
VL: B1 VL
VH: B1 VH with V104W, R106K
Regarding B23, the “Inhibit as a Fab?” value is on record as “No”.

B24: X67-F10: single point mutation of M142-H08 (P2); HV-CDR3 GGLLLWTRELKSNYFDY (antibody, V domains shown)
VL: B1 VL
VH: B1 VH with V104W, F105T
For B24, the “Inhibit as a Fab?” value was “Yes”.

B25: X66-C02: single point mutation of M142-H08 (P1); HV-CDR3 GGLLLWFVELKSNYFDY (antibody, V domains shown)
VL: B1 VL
VH: B1 VH with V104W, R106V
Consider B25, for which the “Inhibit as a Fab?” value is listed as “No”.

B26: X67-G09: single point mutation of M142-H08 (P2); HV-CDR3 GGLLLWLRELKSNYFDY (antibody, V domains shown)
VL: B1 VL
VH: B1 VH with V104W, F105L
Take B26: the “Inhibit as a Fab?” value is given as “Yes”.

B27: X67-G01: single point mutation of M142-H08 (P2); HV-CDR3 GGLLLWCRELKSNYFDY (antibody, V domains shown)
VL: B1 VL
VH: B1 VH with V104W, F105C
Turning to B27, the “Inhibit as a Fab?” value is “No”.

B28: X66-C03: single point mutation of M142-H08 (P1); HV-CDR3 GGLLLWFLELKSNYFDY (antibody, V domains shown)
VL: B1 VL
VH: B1 VH with V104W, R106L
On to B28, for which the “Inhibit as a Fab?” value is on record as “No”.
